In this test the target is T1, myc-p53 (isotope-labeled myc-fused recombinant p53, made in vitro from pAS2-1-p53) (UniProt P02340 72-390, isotope-labeled).
T1 construct: Control of the coimmunoprecipitation
Put plainly: coimmunoprecipitation of isotope-labeled recombinant proteins, SDS-PAGE. The source says:
In the second test, coding sequences of pAS2-1-CCR2b and pAS2-1-p53 were amplified by PCR using a T7 promoter, a 5′ primer encoding myc epitope: 5′[…] 3′ (SEQ ID NO:44) and a 3′ primer originating in p AS2-1: 5′[…]3′ (SEQ ID NO:45) to express an epitope-tagged protein. Similarly, pACT2-FROUNT was amplified by PCR using a T7 promoter, a 5′ primer encoding HA epitope: 5′[…]3′ (SEQ ID NO:46) and a 3′ primer originating in p ACT2: 3′[…]5′ (SEQ ID NO:47). Then, isotope-labeled recombinant proteins were produced in accordance with user's manual of […] Co-IP Kit (CLONTECH Laboratories, Inc.). By the coimmunoprecipitation method using these recombinant proteins, the specific binding ability between CCR2 and FROUNT was confirmed again (FIG. 2). […] Namely, coprecipitation occurred by using the HA- or Myc-specific antibody in the coexistence of myc-CCR2 and HA-FNT, the coprecipitation disappeared by adding an antigen peptide and no coprecipitation occurred in the case of myc-p53, thereby indicating specific binding ability.

T1 sequence (P02340 72-390): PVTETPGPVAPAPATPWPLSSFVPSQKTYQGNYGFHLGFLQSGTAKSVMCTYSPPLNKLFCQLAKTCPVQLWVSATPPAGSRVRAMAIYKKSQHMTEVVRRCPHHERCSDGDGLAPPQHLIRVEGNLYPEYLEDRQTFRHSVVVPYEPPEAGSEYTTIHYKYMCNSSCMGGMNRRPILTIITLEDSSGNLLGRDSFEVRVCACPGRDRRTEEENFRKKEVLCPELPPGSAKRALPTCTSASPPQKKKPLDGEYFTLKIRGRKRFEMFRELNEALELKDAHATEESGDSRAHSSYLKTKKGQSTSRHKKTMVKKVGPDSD

B1: HA-FNT (isotope-labeled HA-fused recombinant FROUNT protein, clone 19 part, made in vitro from pACT2-FROUNT) (other)
chain: LVSDRFLRDYCERGCFSDLDLIDNLGPAMMLSDRLTFLGKYREFHRMYGEKRFADAASLLLSLMTSRIAPRSFWMTLLTDALPLLEQKQVIFSAEQTYELMRCLEDLTSRRPVHGESDTEQLQDDDIETTKVEMLRLSLARNLARAIIREGSLEGS
modifications: isotope-labeled
notes: Co-IP Kit by PCR from pACT2-FROUNT; also called HA-tagged recombinant FROUNT protein; not shown: vector-encoded residues m
Consider B1, for which the binding result is listed as “no binding”.
